Biological target: Aβ1-40 peptide (monomeric start material of the nucleation assay)
Test: cell-based or functional assay

Substance	Nucleation assay Δ lag at 1.25 µM compound (ratio of lag time to control)	Nucleation assay Δ lag at 2.5 µM compound (ratio of lag time to control)	Nucleation assay Δ lag at 5 µM compound (ratio of lag time to control)	Nucleation assay Δ lag at 0.6 µM compound (row marked #: measured at 2.5, 1.25 and 0.6 µM) (ratio of lag time to control)	Nucleation assay Δ lag at 1.25 µM compound (row marked #: measured at 2.5, 1.25 and 0.6 µM) (ratio of lag time to control)	Nucleation assay Δ lag at 2.5 µM compound (row marked #: measured at 2.5, 1.25 and 0.6 µM) (ratio of lag time to control)
PPI-969: TFA • N-ethyl-(Gaffvl)-NH2 (peptide)	3	> 5	> 5	–	–	–
PPI-1013: TFA • H-(Glvffl)-NH2 (peptide)	–	–	–	2	> 3	2
